We go through two sequences from US20050202434.

The data set addresses T1, metallo-beta-lactamase (beta-lactamase II) 5/B/6 (Bacillus cereus) (UniProt P14488).
T1 sequence: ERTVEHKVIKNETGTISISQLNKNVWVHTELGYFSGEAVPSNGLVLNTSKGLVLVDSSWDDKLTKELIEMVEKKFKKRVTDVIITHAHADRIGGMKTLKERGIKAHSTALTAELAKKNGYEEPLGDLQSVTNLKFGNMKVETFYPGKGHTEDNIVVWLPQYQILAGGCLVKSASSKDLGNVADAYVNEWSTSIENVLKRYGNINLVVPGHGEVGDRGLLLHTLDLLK
Nature of the data set: inhibition.

Regarding “ANCNANNNTTNNNTNGNNGNNCATNNNNAA [round 16 SELEX pool (consensus 30N)]”, the activity (% control activity) is 47.

As to “GCGCCATATGCGCGCGNNNNNNNNNNNNNNNNNNNNNNNNNNNNNNCGCGCGGAGCTCGCG [initial random 61-mer pool]”, the activity (% control activity) stood at 100.
